Measured values taken from paper PMC9844003, “A pH-dependent anti-CD47 antibody that selectively targets solid tumors and improves therapeutic efficacy and safety” (Journal of Hematology & Oncology, 2023).
Residue numbers refer to the chain shown, from its start. Names may count otherwise.

Tests used:
[1] = biological target: T1, extracellular domain of CD47 fused to a His(×6)-Avi-tag (Homo sapiens, UniProt Q08722); experiment: ELISA; CD47-ECD coated on plates; serial dilutions of phage-scFvs, detected with anti-M13-HRP; pH 7.4 and pH 6.0; conditions: one partner purified
T1 construct: CD47, extracellular domain; also called CD47-ECD

[2] = biological target: T1, extracellular domain of CD47 fused to a …; experiment: ELISA; CD47-ECD coated on plates; phage-scFv site saturation mutants of BC31M4, detected with anti-M13-HRP; pH 6.5 and pH 7.4; conditions: one partner purified
[3] = biological target: T1, extracellular domain of CD47 fused to a …; experiment: SPR; Biacore T200, 25 °C; anti-human IgG immobilised on a CM5 chip, antibodies (hIgG1 form) captured, twofold serially diluted CD47-ECD injected; pH 6.8 buffer; 1:1 binding model; conditions: both partners purified
[4] = biological target: T1, extracellular domain of CD47 fused to a …; experiment: SPR; Biacore T200, 25 °C; anti-human IgG immobilised on a CM5 chip, antibodies (hIgG1 form) captured, twofold serially diluted CD47-ECD injected; pH 7.4 buffer; 1:1 binding model; conditions: both partners purified
[5] = biological target: T1, extracellular domain of CD47 fused to a …; experiment: ELISA; CD47-ECD coated on plates; serial dilutions of BC31M4 mutants in hIgG1 form; pH 7.4 and pH 6.8; conditions: both partners purified
[6] = biological target: T2, full-length human CD47 stably expressed on CHO cells (CHO-hCD47) (human, UniProt Q08722); experiment: flow cytometry on cells; blocking assay of BC27: serially diluted antibody incubated with cells in the presence of bio-SIRPα-Fc, detected with streptavidin-FITC; pH 6.0, 6.5, 6.9 and 7.4; up to 1 µM antibody; conditions: one partner purified
T2 construct: full-length human CD47, stably expressed on CHO cells; also called CHO-CD47; cell-surface CD47; source: CHO cells, stably expressing, on cells

[7] = biological target: T2, full-length human CD47 stably expressed …; experiment: flow cytometry on cells; serially diluted antibodies (hIgG1 form) incubated with CHO-CD47 or tumor cells, detected with goat anti-human IgG-FITC; pH 6.8 and pH 7.4 separately; conditions: one partner purified
[8] = biological target: T3, cell-surface CD47 on Raji, Jurkat and MDA-231 tumor cells (human (endogenous in Raji, Jurkat, …, UniProt Q08722)); experiment: as above; conditions: one partner purified
T3 construct: CD47 endogenous on human tumor cell lines
T3 sequence (Q08722 19-323): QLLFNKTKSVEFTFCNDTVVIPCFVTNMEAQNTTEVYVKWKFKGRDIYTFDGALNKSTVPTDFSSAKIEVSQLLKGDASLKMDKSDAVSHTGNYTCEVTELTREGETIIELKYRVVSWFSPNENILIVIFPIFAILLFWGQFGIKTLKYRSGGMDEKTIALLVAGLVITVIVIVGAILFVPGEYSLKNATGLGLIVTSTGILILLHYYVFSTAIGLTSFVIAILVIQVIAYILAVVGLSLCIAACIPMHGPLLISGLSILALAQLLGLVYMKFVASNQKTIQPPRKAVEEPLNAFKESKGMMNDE

T1 sequence (Q08722 whole entry, looked up, the tested form may be a part): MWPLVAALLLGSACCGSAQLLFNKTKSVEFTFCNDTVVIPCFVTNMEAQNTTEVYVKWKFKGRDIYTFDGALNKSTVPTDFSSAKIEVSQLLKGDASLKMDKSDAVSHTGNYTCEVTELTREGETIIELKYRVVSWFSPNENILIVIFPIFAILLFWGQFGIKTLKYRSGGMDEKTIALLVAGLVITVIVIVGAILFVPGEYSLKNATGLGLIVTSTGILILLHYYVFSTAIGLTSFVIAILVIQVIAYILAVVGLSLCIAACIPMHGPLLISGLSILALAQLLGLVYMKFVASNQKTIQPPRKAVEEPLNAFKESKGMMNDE
T2 sequence (Q08722 19-323): as the sequence (Q08722 19-323) above

B1: BC27 (phage-scFv form) (scFv, V domains shown)
VH: QVQLVQSGAEVKKPGASVKVSCKASGYTFTSYGISWVRQAPGQGLEWMGWISAYNGNTNYAQKLQGRVTMTTDTSTSTAYMELRSLRSDDTAVYYCARGKVYFDYWGQGTLVTVSS
VL: EIVLTQSPATLSLSPGERATLSCRASQSLSRNHLAWYQQKPGQPPRLLIHWASTRESGVPDRFSGSGSGTDFTLTISSLQAEDVAVYYCQQYYTASWTFGQGTKVEIK
notes: VH of BC27: as the variable region of the heavy chain of m6 (PDB 7WN8) except in HCDR3; scFv linker of the library; VL of BC27: as the variable region of the light chain of m6 (PDB 7WN8) except in LCDR3
binding result [1]: binds

B2: BC31M4 (phage-scFv form) with VL H107 replaced by lysine (scFv, V domains shown)
VH: B1 VH with K100A
VL: B1 VL with Y92K, Y93T, T94Q, A95N, S96T
notes: VH of BC31M4: as the variable region of the heavy chain of m6 (PDB 7WN8) with A instead of T at residue 108 of HCDR3 (IMGT numbering); scFv linker; VL of BC31M4 (as the variable region of the light chain of m6, PDB 7WN8) with H107 (LCDR3, IMGT numbering) changed; also called H107K
binding result [2]: binds

B3: BC31M5 (hIgG1 form) (antibody, V domains shown)
VH: B1 VH with K100T
VL: B1 VL with Y92H, Y93T, T94Q, A95N, S96T
notes: VH of BC31M5: as the variable region of the heavy chain of m6 (PDB 7WN8); constant region of the human IgG1 heavy chain (from the expression vector); VL of BC31M5: as the variable region of the light chain of m6 (PDB 7WN8); constant region of the light chain from the hIgG1 light-chain vector; IgG1
fold higher binding affinity than BC31M4 at pH 6.8 [3]: ~3 fold | pH-dependence (ratio of KD at pH 7.4 to KD at pH 6.8) [4]: ~1.9 fold

B4: BC31M4 (phage-scFv form) with VL H107 replaced by arginine (scFv, V domains shown)
VH: B1 VH with K100A
VL: B1 VL with Y92R, Y93T, T94Q, A95N, S96T
notes: VH of BC31M4: as the variable region of the heavy chain of m6 (PDB 7WN8) with A instead of T at residue 108 of HCDR3 (IMGT numbering); scFv linker; VL of BC31M4 (as the variable region of the light chain of m6, PDB 7WN8) with H107 (LCDR3, IMGT numbering) changed
binding result [2]: binds

B5: BC31M4 (hIgG1 form) with the 38R/55R substitution (antibody, V domains shown)
VH: B1 VH with K100A
VL: B1 VL with H33R, H50R, Y92H, Y93T, T94Q, A95N, S96T
notes: VH of BC31M4: as the variable region of the heavy chain of m6 (PDB 7WN8) with A instead of T at residue 108 of HCDR3 (IMGT numbering); constant region of the human IgG1 heavy chain (from the expression vector); VL of BC31M4 (as the variable region of the light chain of m6, PDB 7WN8) with histidine-to-arginine substitutions, IMGT numbering; constant region of the light chain from the hIgG1 …
binding result [5]: binds

B6: BC27 (hIgG1 form) (antibody, V domains shown)
VH: B1 VH
VL: B1 VL
notes: VH of BC27, parent of BC31M4 and BC31M5: as the variable region of the heavy chain of m6 (PDB 7WN8) except in HCDR3; constant region of the human IgG1 heavy chain (from the expression vector); VL of BC27: as the variable region of the light chain of m6 (PDB 7WN8) except in LCDR3; constant region of the light chain from the hIgG1 light-chain vector; IgG1; Random mutations were introduced only into …
binding result [6]: binds

B7: BC31M4 (phage-scFv form) with VL H38 replaced by lysine (scFv, V domains shown)
VH: B1 VH with K100A
VL: B1 VL with H33K, Y92H, Y93T, T94Q, A95N, S96T
notes: VH of BC31M4: as the variable region of the heavy chain of m6 (PDB 7WN8) with A instead of T at residue 108 of HCDR3 (IMGT numbering); scFv linker; VL of BC31M4 (as the variable region of the light chain of m6, PDB 7WN8) with H38 (LCDR1, IMGT numbering) changed; also called H38K
binding result [2]: binds

B8: BC31M4 (hIgG1 form) (antibody, V domains shown)
VH: B1 VH with K100A
VL: B1 VL with Y92H, Y93T, T94Q, A95N, S96T
notes: VH of BC31M4: as the variable region of the heavy chain of m6 (BC31M5, PDB 7WN8) with alanine instead of threonine at residue 108 of HCDR3 (IMGT numbering); constant region of the human IgG1 heavy chain (from the expression vector); VL of BC31M4: as the variable region of the light chain of m6 (BC31M5, PDB 7WN8); only one amino acid (heavy chain 108) differs between the two antibodies; constant …
binding result [7]: binds | binding result [8]: binds

B9: BC31M4 (phage-scFv form), wild type (scFv, V domains shown)
VH: B1 VH with K100A
VL: B1 VL with Y92H, Y93T, T94Q, A95N, S96T
notes: VH of BC31M4: as the variable region of the heavy chain of m6 (PDB 7WN8) with A instead of T at residue 108 of HCDR3 (IMGT numbering); scFv linker; VL of BC31M4: as the variable region of the light chain of m6 (PDB 7WN8); also called wild-type BC31M4
binding result [2]: binds

B10: BC31M4 (phage-scFv form) with VL H38 replaced by arginine (scFv, V domains shown)
VH: B1 VH with K100A
VL: B1 VL with H33R, Y92H, Y93T, T94Q, A95N, S96T
notes: VH of BC31M4: as the variable region of the heavy chain of m6 (PDB 7WN8) with A instead of T at residue 108 of HCDR3 (IMGT numbering); scFv linker; VL of BC31M4 (as the variable region of the light chain of m6, PDB 7WN8) with H38 (LCDR1, IMGT numbering) changed
binding result [2]: binds

B11: BC31M4 (hIgG1 form) with the 55R/107R substitution (antibody, V domains shown)
VH: B1 VH with K100A
VL: B1 VL with H50R, Y92R, Y93T, T94Q, A95N, S96T
notes: as for B5
binding result [5]: binds
